The results in this text go back to US20170052184A1.

For assay [1], the target named is bovine serum albumin (BSA) (bovine) (UniProt P02769). Nature of the assay: EIA, BSA background.
Assay [2] concerns the target bovine serum albumin (bovine) (UniProt P02769). Kind of assay: EIA, BSA control.
Assay [3] deals with bovine serum albumin (BSA) (bovine) (UniProt P02769). Kind of assay: EIA, BSA background. The source holds these as a separate data set.
The target in assay [4] is T1, HCV bt-141-161 (Peptide 2, HCVc 141-161) (Hepatitis C virus (numbering per HCV-1)).
T1 sequence (peptide, biotin (carboxy-terminal per [p-0227]; N-terminal per [p-0050])): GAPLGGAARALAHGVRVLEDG
Kind of assay: EIA, captured mAb + biotin peptide.

Assay [5] concerns the target HCV Core1-169 (HCV-1) (UniProt P26664). Nature of the assay: EIA, core1-169 coated on plate.
For assay [6] the target is unchanged. Kind of assay: EIA, core1-169 captured by mAb 14-153-229.

Read-outs that look alike come from different tables or passages of the source.

Sequence of bovine serum albumin (bovine) (P02769 25-607 limits assumed): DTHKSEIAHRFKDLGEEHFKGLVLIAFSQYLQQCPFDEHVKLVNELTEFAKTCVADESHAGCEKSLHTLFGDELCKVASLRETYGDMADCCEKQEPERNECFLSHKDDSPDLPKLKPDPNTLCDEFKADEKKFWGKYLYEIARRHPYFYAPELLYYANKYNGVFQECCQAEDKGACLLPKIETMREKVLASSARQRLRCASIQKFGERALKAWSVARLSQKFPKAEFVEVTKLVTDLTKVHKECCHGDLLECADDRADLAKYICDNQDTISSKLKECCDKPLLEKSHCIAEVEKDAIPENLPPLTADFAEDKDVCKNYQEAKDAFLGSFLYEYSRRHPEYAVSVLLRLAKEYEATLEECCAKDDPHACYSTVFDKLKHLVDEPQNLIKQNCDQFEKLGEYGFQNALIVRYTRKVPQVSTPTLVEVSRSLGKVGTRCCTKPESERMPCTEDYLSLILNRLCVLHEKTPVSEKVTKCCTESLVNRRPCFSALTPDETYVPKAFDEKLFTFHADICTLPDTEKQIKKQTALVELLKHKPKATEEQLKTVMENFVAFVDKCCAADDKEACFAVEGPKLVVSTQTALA
Sequence of bovine serum albumin (BSA) (bovine) (P02769 25-607 limits assumed): as above

B1: HCV 208B-353 (antibody, V domains shown)
VH: EVQLVESGGDLVKPGGSLKLSCAASGFTFNHYGMSWVRQPPDKRLEWVATISSGGGYTYYPDSVKGRFTISRDNAKDTLSLQMSSLRSGDTAVYYCASLYGSLFAYWGQGTLVTVSA
VL: DIVMTQSQKFMSTTVGDRVRVTCKASQNVGTAVAWYQQKPGQSPKLLIYSASNRYTGVPDRFTGSGSGTDFTLTITNMQSEDLADYFCQQYSTYPLTFGSGAKLEIKR
Consider B1, for which the OD (A492) is 0.06 OD in assay [1] and 0.1 OD in assay [3]. Also, the Reactivity (OD 492 nm) in assay [2] was 0.07 OD units.

B2: HCV 208B-793 (antibody, V domains shown)
VH: EVKLVESGGGLVQPGGSLKLSCAASGFTFSSYAMSWVRQTPERRLEWVTYISNGGGSTYYSDTVKGRFTFSRDNAKNTLYLQMSSLKSEDTAMYYCARHGLGRTGFASWGQGTLVTVSA
VL: DIVMTQSHKFMSTSVGDRVSITCKASQDVGTAVAWYQQKPGQSPKLLIYWASTRHTGVPDRFTGSGSGTDFTLTISNVQSEDLADYFCQQYSNYLTFGAGTKLEVKR
Turning to B2, the OD (A492) is 0.42 OD in assay [1] and 0.2 OD in assay [3]. In assay [2], this molecule gave a Reactivity (OD 492 nm) of 0.13 OD units.

B3: HCV 208B-517 (antibody, V domains shown)
VH: QVQLKQSGPGLVQPSQSLSITCTVSGFSLITHGVHWVRQSPGKGLEWLGVIWSGGSTDYNAAFISRLSISKDTSKSQVFLKMSSLQADDTAIYYCARNGGATAFDYWGQGTTLTVSS
VL: DIVMTQSPATLSVTPGDRVSLSCRASQSISDYLHWYQQKSHESPRLLIKYASQSISGIPSRFRGSGSGSHFTLSINSVEPEDVGVYYCQNGHSFPWTFGGGTKLEIKR
As for B3, the results for the OD (A492) in assay [1] and in assay [3] were 0.07 OD and 0.12 OD, respectively. Further, the Reactivity (OD 492 nm) in assay [2] was determined as 0.11 OD units.

B4: HCV 208B-822 (antibody, V domains shown)
VH: QVQLKQSGPGLVQPSQSLSITCTVSGFSLITYGVHWVRQSPGKGLEWLGVIWGGGSTGYNAAFVSRLNITKDNSKSQVFFKMNSLQPDDTAIYYCARNGGATVFDYWGQGTTLTVSS
VL: DIVMTQSPATLSVTPGDRVSLSCRASQTISDYLHWYQQKSHESPRLLIKYASQSISGIPSRFSGSGSGSHFTLSINSVEPEDVGVYYCQNGHSFPWTFGGGTKLEIKR
As for B4, the values for the OD (A492) in assay [1] and in assay [3] were 0.06 OD and 0.11 OD, respectively. Besides, the Reactivity (OD 492 nm) in assay [2] was 0.05 OD units.

B5: HCV 208B-408 (antibody, V domains shown)
VH: EVKLVESGGGLVQPGGSLRLSCASSGFTFTDYYMSWVRQPPGKALEWLGFIRNKAYGYTTEFSASVNGRFTISRDDSQSVPYLQMNTLRAEDSATYYCARVLYYDYGGFAYWGQGTLVTVST
VL: DIQMTQSPASLSASVGETVTITCRASGNIHTYLAWYQQKQGKSPQLLVYNANTLADGVPSRFSGSGSGTQFSLKINSLQPDDFGSYYCQHFWSAPWTFGGGTQLEIKR
For B5, the OD (A492) in assay [1] was 0.08 OD; in assay [3] it was 0.1 OD. Moreover, the Reactivity (OD 492 nm) in assay [2] was found to be 0.06 OD units; in assay [4] it was 0.2 OD units.

B6: HCV 208A-874 (antibody, V domains shown)
VH: QVQLQQPGAELVKPGASVKLSCKASGYTLSSYWMHWVKQRPGQGLEWIGEIHPSDSYTSYNQKFKDKATLTVDKSSSTAYMQLSSLTSEDSAVYYCARGGYYRYDEFAYWGQGTLVTVSA
VL: DIVMTQSHKFMSTSIGDRVSITCKASQNVSPAVAWYQQKPGQSPKLLIYSASSRYTGVPDRFTGSGSGTAFTFTISSVQAEDLAVYFCQQHFSTPWTFGGGTMLEIKR
Turning to B6, the OD (A492) with HCV Core1-169 (HCV-1) [5] turned out to be 0.45 OD; in assay [1], 0.06 OD; with HCV Core1-169 (HCV-1) [6], 0.18 OD; in assay [3] it was 0.1 OD. For the same molecule, the Reactivity (OD 492 nm) in assay [2] came to 0.05 OD units.

B7: HCV 208B-327 (antibody, V domains shown)
VH: EVQLVESGGGLVKPGGSLKLSCAASGFTFSDSYMYWVRQTPDQRLEWVATISDGGSYTFYPDSVKGRFTISRDNAQNNLYLQMSSLKSEDTAMYYCASPHAGYFGWFAYWGRGTLVTVSA
VL: DIVMTQAAFSNPVTPGTSVSISCRSSKSLLHSNGITYLYWYLQKPGQSPQLLIYQMSKIASGVPDRFRSSGSGTDFTLRISRVEAADVGVYYCAQNLELPWTFGGGTKLEIKR
Turning to B7, the OD (A492) is 0.08 OD in assay [1] and 0.09 OD in assay [3]. The same molecule displayed a Reactivity (OD 492 nm) in assay [2] of 0.05 OD units.

B8: HCV 208B-826 (antibody, V domains shown)
VH: DVQLVESGGGLVQAGGSRKLSCAASGFPFSSFGMHWVRQAPEKGLEWVASISSRTSKIYYADNLKGRFTISRDNPKNTLFLQMTSLGSEDTAMYYCVRSVFGNSYWFFDVWGAGTTVTVSS
VL: DIVLTQSPATLSVTPGDRVSLSCRASQRIYNYLHWYQQKSHESPRLLTKYASQSISGIPSRFSGSGSGTDFILTINSVETEDFGMYFCQQSNSWPLTFGAGTKLELRR
For the molecule B8, the OD (A492) in assay [1] is 0.08 OD; in assay [3], 0.41 OD. The molecule also came in with a Reactivity (OD 492 nm) in assay [2] of 0.07 OD units.

B9: HCV 208A-210 (antibody, V domains shown)
VH: QVQLQQSGPELVKPGASMRISCKASGYTFTSYYVHWIKQRPGQGLEWIGCIYPGDVNTDYNEKFKGKATLTADKSSSTAYMQVSTLTSEDSAIYFCVLYYYGSFAYWGQGTLVTVSA
VL: EIVLTQSPAITAASLGQNVTITCRASSSVSYMHWYRQKSGTSPQLWIYEISRRASGVPARFRASGSGTSYSLTISSMEAEDAAIYYCQQWNYPLTFGAGTKLEVKR
B9: the OD (A492) in assay [1] came out at 0.06 OD; in assay [3], 0.08 OD. This molecule had a Reactivity (OD 492 nm) in assay [2] of 0.06 OD units.

B10: HCV 208B-911 (antibody, V domains shown)
VH: QVHLQQPGAELVRPGVSVKLSCKASGYTFTTYSINWMKQRPGQGLEWIGNIYPSTSHTNYNQKFRDKATMTVDKSSSTAYMQLSSPTSEDSAVYYCTINAYSMDYWGQGTSVTVSS
VL: QIVLTQSPEIMSASPGEKVTITCSASSSVSFMYWFQQKPGTSPKLWIYITSNLASGVPTRFSGSGSGTSYSLTISRMEAEDAATYYCQQRSSFPYTFGGGTKLEMKR
Regarding B10, the OD (A492) in assay [1] stood at 1.17 OD; in assay [3], 0.17 OD. Besides, in assay [2], the Reactivity (OD 492 nm) worked out at 0.1 OD units.

B11: HCV 208A-692 (antibody, V domains shown)
VH: QGQMQQSGAELAKPGASVKLSCKTSGFTFSSSYISWLKQKPGQSLEWIAWIFAGTGNTNYNQKFTDKAQLTVDTSSSTAYMQLSSLTTEDSAIYYCAISGTGFTYWGQGTLVTVSA
VL: EVLMTQSPLSLPVSLGDQASISCRSSQSLEHSNGNTYLEWFLQRPGQPPKLLIYKVSSRFSGVPDRFSGSGSGTDFTLKISRVEAEDLGVYYCFQGSHVPFTFGSGTKLAIKR
As for B11, the OD (A492) in assay [1] was determined as 0.06 OD; in assay [3], 0.09 OD. Also, the Reactivity (OD 492 nm) is 0.06 OD units in assay [2] and 0.38 OD units in assay [4].

B12: HCV 208A-126 (antibody, V domains shown)
VH: QLQQSGPVLVKPGASVMISCKTSGYTFTENAMHWVKQSHGKSLEWIGGVNPNNGDTIFNQKFKGKATLTVDKSSNTAFTELRSLPSEESTVYYCVRRGLDFFDYWGQGTSVTVSS
VL: DIVLTQSPASLAVSLGQRATISCRASQSVSTSRYSYMHWYQQKPGQPPKLLIKYASNLESGVPARFSGSGSGTDFTLNIHPVAEEDTAAYYCQHSWEFPFTFGSGTKLEIKR
With B12, the results for the OD (A492) in assay [1] and in assay [3] were 0.24 OD and 0.07 OD, respectively. In assay [2], the Reactivity (OD 492 nm) was 0.1 OD units.

B13: HCV 208B-178 (antibody, V domains shown)
VH: DVKLVESGGGLVKLGGSLKLSCAASGFTFSSYYMSWVRQTPEKRLELVAAINSNGGSTYYPDTVKGRFTISRDNAKNTLYLQMSSLKSEDTALYYCARHGGLGRRDWYFDVWGAGTTVTVSS
VL: DIVLTQSPASLAVSLGQRATISCRASESVDNYGISFMHWYQQKPGQPPKLLIYRASNLESGIPARFSGSGSRTDFTLTINPVETDDVATYYCQQSNKDPFTFGSGAKLEIKR
Consider B13, for which the OD (A492) was determined as 0.07 OD in assay [1] and 0.08 OD in assay [3]. The same molecule had a Reactivity (OD 492 nm) in assay [2] of 0.07 OD units.

B14: HCV 208A-442 (antibody, V domains shown)
VH: DVQLQESGPGLVNPSQSLSLTCSVTGYSITSGYYWIWIRQFPGNKLEWMGYIKYDGGNNYSPSLKNRISIARDTSKNQFFLKLNSVTIEDTATYYCTRGSDSFDYWGQGTTLTVSS
VL: DIVLTQSPASLAVSLGQRAIISCKASQSVSFAGTNLMHWYQQKPGQQPKLLIYRASNLETGVPTRFSGSGSRTDFTLNIHPVEEDDAATYYCQQSREYYTFGGGTKLEIKR
Take B14: the values for the OD (A492) in assay [1] and in assay [3] were 0.06 OD and 0.14 OD, respectively. Also, the Reactivity (OD 492 nm) in assay [2] was determined as 0.06 OD units.

B15: HCV 208A-422 (antibody, V domains shown)
VH: DVQLQESGPGLVNPSQSLSLTCSVTGYSITSGYYWIWIQQSPGNKLEWMGYIKYDGGNNYSPSLKNRISIARDTSKNQCFLKLNSVTIEDTATYYCTRGSDSFDYWGQGTTLTVSS
VL: DIVLTQSPASLAVSLGQRAIISCKASQSVSFAGTNLMHWYQQKPGQQPKLLIYRASNLETGVPTRFSGSGSRTDFTLNIHPVEEDDAATYYCQQSREYYTFGGGTKLEIKR
Regarding B15, the OD (A492) came to 1.68 OD in the assay with HCV Core1-169 (HCV-1) [5], 1.1 OD in assay [1], 0.18 OD with HCV Core1-169 (HCV-1) [6] and 0.11 OD in assay [3]. The same molecule had a Reactivity (OD 492 nm) in assay [2] of 0.07 OD units.

B16: HCV 208B-515 (antibody, V domains shown)
VH: QVQLQQPGAELVKPGASLKLSCRASGYTFTSYWIHWVKQRPGQGLEWIGEIDPSDSYTNYNQKFKGKATLTVDKSSRAAYMQLSSLTSEDSAVYYCARHYYGVFDSWGQGTKLTVSS
VL: QIVFTQYPAIMSASLGERVTMTCTASSSVTSSYLHWFQQKPGSSPKLWIYSTSNPGSGVPARFSGRGSGTSYSLSISSMEAEDAATYYCLQFHRSPWTFGGGTKLEIRR
Consider B16, for which the OD (A492) is 0.07 OD in assay [1] and 0.08 OD in assay [3]. Also, in assay [2], the Reactivity (OD 492 nm) came out at 0.06 OD units.
